{"source": "paper PMC3666333", "about": "(Nature communications, 2013)", "target": "the molecule itself", "experiment": "SAXS titration"}
{"protein": "Gp4D (residues 241-566, 36-kDa), minimal fragment of the T7 gene 4 helicase that forms hexameric rings (domain or fragment, bacteriophage T7, UniProt P03692 241-566, looked up) CHLNGHDREIMEQVWNAGPWIPDGVVSALSLRERIREHLSSEESVGLLFSGCTGINDKTLGARGGEVIMVTSGSGMGKSTFVRQQALQWGTAMGKKVGLAMLEESVEETAEDLIGLHNRVRLRQSDSLKREIIENGKFDQWFDELFGNDTFHLYDSFAEAETDRLLAKLAYMRSGLGCDVIILDHISIVVSASGESDERKMIDNLMTKLKGFAKSTGVVLVVICHLKNPDKGKAHEEGRPVSITDLRGSGALRQLSDTIIALERNQQGDMPNLVLVRILKCRFTGDTGIAGYMEYNKETGWLEPSSYSGEEESHSESTDWSNDTDF", "values": [{"measurement": "binding result", "result": "binds"}]}
